Measurements published in patent publication US8129349B2, “Treatment of disease by inducing cell apoptosis” (The Regents of the University of California, priority 2000, dated 2012).

Molecular target: T1, caspase 8 (Homo sapiens, UniProt Q14790)
T1 construct: 21 amino acid linker (vector-derived) (N); purchased Alexis Biochemicals 201-041-C005
Assay: In vitro self-activation of recombinant caspase 8
Format: biochemical
Details: peptides 200 μM, 2 h, procaspase 8 (0.2 μg), colorimetric substrate
Experimental: FIG. 5 provides results showing the direct association of C/EBPβ-Glu^217 with procaspases 1 and 8. […] Enzyme activity was measured in the absence (control) or presence of C/EBPβ peptides (200 μM) for 2 h, using a procaspases 1 (1U) (not shown) and 8 (0.2 μg) activity assay. Values are presented as the mean±one half the range of duplicates. Panel C provides results for cells cultured on a collagen type I matrix and incubated with the indicated cell permeant, purified synthetic N-acetyl, C-aldehyde C/EBPβ tetra-peptides (10 μM) or with recombinant C/EBPβ-HA peptides as indicated, together with the Chariot reagent (Active Motif) for 4 h. Control cells were incubated without peptides (P<0.05 for all peptides containing Ala^217).
FIG. 7 provides data showing that phosphorylation of rat C/EBPβ on Ser^105 prevents stellate cell apoptosis. Panel A provides results for mouse stellate cells transfected as described herein (See, FIG. 2), with mutant p90RSK or treated with lactacystin (10 μM) (closed bars), and co-transfected with CMV-rC/EBPβ-Asp^105 (1 μg each) (open bars) as indicated. Annexin-V-PE binding was determined as described for FIG. 2 (P<0.05 for rC/EBPβ-Asp^105). Panel B provides results of an annexin-V-PE assay for stellate cells from C/EBPβ^+/+ (closed circles) and rC/EBPβ-Asp^105 transgenic (open circles) mice treated with lactacystin (0-30 μM). The annexin-V-PE assay was performed 6 hours after treatment began (P<0.05 for rC/EBPβ-Asp^105 transgenic mice for 5-25 μM lactacystin). Panel C provides results for rC/EBPβ-HA constructs (0.3 μg) transfected into rat stellate cells. The expressed peptides were immunoprecipitated with anti-HA antibodies. Using a specific antibody, rCEBPβ-PSer^105 was detected only in cells that expressed wild-type rC/EBPβ. […] Reciprocal immunoprecipitations confirmed these associations. […] Enzyme activity was measured using a colorimetric substrate as described in the Examples. […]
Purified recombinant C/EBPβ peptides, expressed as known in the art (See, Descombes et al., supra; and Buck et al. (1994), supra), and purified synthetic N-acetyl, C-aldehyde tetrapeptides (200 μM) (American Peptide Company) were assayed for their ability to inhibit the activity of purified human recombinant caspases 1 (catalogue # 201-056) and 8 (catalogue # 201-041-C005) (Alexis Biochemicals). […] Caspase activity was determined by the release of the p-nitroaniline colorimetric (Alexis Biochemicals) substrate for caspase 1 (catalogue # 260-026) or 8 (catalogue # 260-045) within the linear part of the kinetic assay (Thornberry et al. (1997), supra; Stennicke and Salvesen, supra). […]

T1 sequence (Q14790 217-479): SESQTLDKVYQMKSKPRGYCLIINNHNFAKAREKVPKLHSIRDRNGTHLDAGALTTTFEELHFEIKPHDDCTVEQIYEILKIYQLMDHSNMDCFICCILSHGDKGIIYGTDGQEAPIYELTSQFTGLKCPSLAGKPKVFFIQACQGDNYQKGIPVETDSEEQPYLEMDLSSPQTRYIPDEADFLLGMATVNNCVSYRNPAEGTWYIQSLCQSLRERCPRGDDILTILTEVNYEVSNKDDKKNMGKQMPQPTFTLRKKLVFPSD

B1: C/EBPβ-Glu^217: modified murine C/EBPβ with mutation of Thr^217 to glutamic acid (SEQ ID NO:4), phosphorylation mimic (protein, listed as Mus musculus)
chain: MHRLLAWDAACLPPPPAAFRPMEVANFYYEPDCLAYGAKAARAAPRAPAAEPAIGEHERAIDFSPYLEPLAPAADFAAPAPAHHDFLSDLFADDYGAKPSKKPADYGYVSLGRAGAKAAPPACFPPPPPAALKAEPGFEPADCKRADDAPAMAAGFPFALRAYLGYQATPSGSSGSLSTSSSSSPPGTPSPADAKAAPAACFAGPPAAPAKAKAKKZVDKLSDEYKMRRERNNIAVRKSRDKAKMRNLETQHKVLELTAENERLQKKVEQLSRELSTLRNLFKQLPEPLLASAGHC
- Inhibition of in vitro self-activation of caspase 8: inhibited the in vitro self-activation
